Results reported in the supplement of paper PMC10567573.
± gives the standard deviation.

Assay: protein stability index of a GFP-peptide fusion (GPS, HEK-293T) (PSI 1-6); higher = more stable
[1] = treatment: DMSO, c terminus: a fixed tail appended
[2] = treatment: MLN4924 1 uM, 8 h, c terminus: a fixed tail appended
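Note: 24-mer peptide tiles fused after GFP, lentivirally expressed, FACS-sorted into six equal bins by GFP/DsRed ratio, decoded by Illumina sequencing, PSI is the read-weighted mean bin number.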

Sequence | protein stability index [1] | protein stability index [2] | protein stability index (treatment: DMSO, c terminus: native) | protein stability index (treatment: MLN4924 1 uM, 8 h, c terminus: native)
GATPSYHWDLAELLPNQSHGNQSA [SLC22A15] | 4.06 ± 0.19 | 4.22 ± 0.33 | – | –
EHQNKRSPLHAAAEAGHVDICHML [EHMT1] | 3.98 ± 0.27 | 3.94 ± 0.12 | – | –
SQDERLDVLLTLKHTVKEHECKLT [IQUB] | 3.41 ± 0.3 | 3.41 ± 0.16 | – | –
CIPASSSFVYGAVPIGASIYVIGD [GAN] | 2.97 ± 0.65 | 2.48 ± 0.61 | – | –
LSLLGAVGLAAVNSMPVDNRNHNE [CHGB] | 3.35 ± 0.2 | 3.54 ± 0.5 | – | –
PCVAESPTVHVEVHQRGSSTAKKE [TRIP13] | 5.42 ± 0.39 | 5.35 ± 0.087 | – | –
LWLRPEVHTKEQILELLVLEQFLA [ZNF396] | 2.54 ± 0.5 | 2.73 ± 0.49 | – | –
KREELCRQIQEEEDEKQRLQNEVR [SSNA1] | 5.01 ± 0.22 | 5.1 ± 0.075 | – | –
CSRQFPEFQERARKRIRTYLKSCR [NOL4L] | 3.25 ± 0.15 | 3.36 ± 0.2 | – | –
CAACKTPIRNRAFYMEEGVPYCER [PDLIM7] | 2.93 ± 0.3 | 3.38 ± 0.18 | – | –
CSTTDHPYKKPYMETSPSEEDSFY [TBX5] | 4.34 ± 0.13 | 4.31 ± 0.2 | – | –
PRTNEWTYVAKMSEPHYGHAGTVY [KLHL13] | 2.44 ± 0.21 | 2.61 ± 0.24 | – | –
CVSHLIIVTVHYGCASFIYLRPQS [OR10K2] | 2.99 ± 0.35 | 3.04 ± 0.46 | – | –
EILEIDDLDAIVPAVKKLKVLSY [CEP70] | – | – | 2.87 ± 0.8 | 3.1 ± 0.041
TPPTTTAEIATASASASTTTTVTA [SNAP91] | 5.39 ± 0.15 | 5.3 ± 0.13 | – | –
VVFPYTSKSCMRAVLEYLYTGMFT [RHOBTB2] | 2.81 ± 0.42 | 2.77 ± 1.1 | – | –
GLGCKDLDLIFHVALPTEAEFQLV [TENT5C] | 2.26 ± 0.21 | 2.28 ± 0.45 | – | –
SAEINQDLNIQLLKDGYRLDEIPD [FAM219A] | 4.91 ± 0.062 | 5.08 ± 0.18 | – | –
FKEQLQALIPYVLNPSKLMEKEIN [ATL3] | 1.91 ± 0.28 | 2.22 ± 0.24 | – | –
GSPQQPGLSAPHSRQIPAPQGAVL [KISS1] | 4.3 ± 0.15 | 4.61 ± 0.28 | – | –
RDLKPENILVTSGGTVKLADFGLA [CDK4] | 3.31 ± 0.44 | 3.33 ± 0.27 | – | –
SENKIVGIGYNGMPNGCSDDVLPW [DCTD] | 3.46 ± 0.35 | 3.56 ± 0.15 | – | –
TPLLMAARYGHLDMVEFLLEQCSA [FEM1C] | 2.28 ± 0.41 | 2.26 ± 0.24 | – | –

Sequence | protein stability index [1] | protein stability index [2] | protein stability index (treatment: DMSO, c terminus: native) | protein stability index (treatment: MLN4924 1 uM, 8 h, c terminus: native)
FDRTEWVQIRRLEAAGESLEEEIR [ZC2HC1C] | 4.02 ± 0.08 | 4.55 ± 0.1 | – | –
SAASVYAGAGGSGSRISVSRSTSF [KRT18] | 3.66 ± 0.066 | 3.59 ± 0.28 | – | –
FEDEVKRLGWQQQAELQELEERLQ [MTUS2] | 4.17 ± 0.4 | 4.28 ± 0.54 | – | –
PKTNEDFEFLYNALEFWRQEELTR [IQUB] | 2.63 ± 0.31 | 2.23 ± 0.43 | – | –
WSQPITTGKAPSPRAAHACATVGN [KLHDC2] | 3.84 ± 0.3 | 3.92 ± 0.2 | – | –
MAKTLVFSKVKTSLGLDHCHSFIS [ACSBG2] | 2.18 ± 0.58 | 1.82 ± 0.52 | – | –
EFDLSPLNLDIGQVYKETRLFLDG [AASDHPPT] | 2.89 ± 0.28 | 2.96 ± 0.27 | – | –
VVENAEKILGYLNTNVLSRDLIPP [SLC6A17] | 2.82 ± 0.15 | 2.84 ± 0.38 | – | –
PRPRPVSLSLRLPHQPVTAITRVS [SMTNL2] | 3.42 ± 0.24 | 3.58 ± 0.27 | – | –
ILVTKVEEPSKYGVVVCEADTGRI [GMPPB] | 2.75 ± 0.18 | 2.91 ± 0.22 | – | –
GSQLPKPRMLRESGHGDAHLQEYA [FATE1] | 4.38 ± 0.25 | 4.5 ± 0.11 | – | –
LEEFKENAYKDLAWKHGNIHLSAP [PCMTD2] | 3.33 ± 0.26 | 3.81 ± 0.12 | – | –
MAGTGLLALRTLPGPSWVRGSGPS [ALKBH7] | 2.68 ± 0.19 | 2.88 ± 0.11 | – | –
LWFANAHLLSWFSPTIIFDNWIPL [DHCR7] | 2.92 ± 0.33 | 2.93 ± 0.16 | – | –
AKILPSPVQGSSEDNLSLVCLPRS [DRICH1] | 3.94 ± 0.18 | 4.04 ± 0.18 | – | –
EPPHNLFCAPGSWEWNELDHIMEI [SERTAD3] | 2.93 ± 0.13 | 3.07 ± 0.25 | – | –
YARYSLKSIDPVLMAPTCVFLASK [CCNC] | 2.16 ± 0.65 | 2 ± 0.3 | – | –
MVFEVLGHHLLKWIIKSNYQGLPV [SRPK2] | 2.91 ± 0.33 | 3.12 ± 0.27 | – | –
NVNRTTANNDHTVLSLACAGGHLA [ANKRD17] | 3.57 ± 0.3 | 3.7 ± 0.36 | – | –
DSYYRLVIHRALDREQVSSYNITV [PCDHGA10] | 2.87 ± 0.6 | 2.44 ± 0.55 | – | –
CGRSEVRPVAPRRPRDAVGQRGAQ [SMAD6] | 4.37 ± 0.24 | 4.57 ± 0.11 | – | –
QSHDDLSNATATPSVRKKAGSFSR [C2CD2L] | 4.75 ± 0.31 | 4.67 ± 0.2 | – | –
